B1: OR4K15 (parent)
chain: GUUAACGGUCAUAGGCCAUGGAAACUAGGAGCACCAUUUCGCUGCCAGUGAAGAAAUGAACAAAGAAAAUCUGGGCCAGGCAGGCAUCAAAAGAAAUAGUCUUGCGCUCAACCAGAAAGUCUGUAAUCAUUUUAAGGGUA

Variants of: B1
Experiment: self-cleavage, relative activity (ratio to wild type); higher = more cleavage; in vitro, sequencing; the parent is a self-cleaving ribozyme

Variant | self-cleavage
GUUAACGGUCAUAGGCCAUGGAAACUAGGAGCACCAUUUCGCUGCCAGUGAAGAAAUGAACAUAGAAAAUCUGGGCCAGGCAGGCAUCAAAAGAAAUAGUCUUGCGCCCAACCAGAAAGUCUGUAAUCAUUUUAAGGGUA [A63U U108C] | 0.01
GUUAACGGUCAUAGGCCAUGGAAACUAGGAGCACCAUUUCGCUGCCAGUGAAGAAAUGAACAUAGAAAAUCUGGGCCAGGCAGGCCUCAAAAGAAAUAGUCUUGCGCUCAACCAGAAAGUCUGUAAUCAUUUUAAGGGUA [A63U A86C] | 1.78
GUUAACGGUCAUAGGCCAUGGAAACUAGGAGCACCAUUUCGCUGCCAGUGAAGAAAUGAACAACGAAAAUCUGGGCCAGGCUGGCAUCAAAAGAAAUAGUCUUGCGCUCAACCAGAAAGUCUGUAAUCAUUUUAAGGGUA [A64C A82U] | 0.26
GUUAACGGUCAUAGGCCAUGGAAACUAGGAGCACCAUUUCGCUGCCAGUGAAGAAAUGAACAAGGAAAAUCUGGGCCAGGCGGGCAUCAAAAGAAAUAGUCUUGCGCUCAACCAGAAAGUCUGUAAUCAUUUUAAGGGUA [A64G A82G] | 0.35
GUUAACGGUCAUAGGCCAUGGAAACUAGGAGCACCAUUUCGCUGCCAGUGAAGAAAUGAACAGAGAAAAUCUGGGCCAGGCAGGCAUCAAAAGAAAUAGUCUUGCGCUCAACCAGAAAGUCUGUAAUCAUGUUAAGGGUA [A63G U131G] | 1.99
GUUAACGGUCAUAGGCCAUGGAAACUAGGAGCACCAUUUCGCUGCCAGUGAAGAAAUGAACAGAGAAAAUCUGGGCCAGGCAGGCAUCAAAAGAAAUAGUCUUGCGCUCAACCAGAAAGUCUGUAAUCAUUUUAAGGGCA [A63G U139C] | 1.1
GUUAACGGUCAUAGGCCAUGGAAACUAGGAGCACCAUUUCGCUGCCAGUGAAGAAAUGAACAACGAAAAUCUGGGCCAGGCAGGCAUCAAAAGAAAUAGUCUAGCGCUCAACCAGAAAGUCUGUAAUCAUUUUAAGGGUA [A64C U103A] | 0.14
GUUAACGGUCAUAGGCCAUGGAAACUAGGAGCACCAUUUCGCUGCCAGUGAAGAAAUGAACAACGAAAAUCUGGGCCAGGCAGGCAUCAAAAGAAAUAGUCUCGCGCUCAACCAGAAAGUCUGUAAUCAUUUUAAGGGUA [A64C U103C] | 0.24
GUUAACGGUCAUAGGCCAUGGAAACUAGGAGCACCAUUUCGCUGCCAGUGAAGAAAUGAACAUAGAAAACCUGGGCCAGGCAGGCAUCAAAAGAAAUAGUCUUGCGCUCAACCAGAAAGUCUGUAAUCAUUUUAAGGGUA [A63U U70C] | 1.68
GUUAACGGUCAUAGGCCAUGGAAACUAGGAGCACCAUUUCGCUGCCAGUGAAGAAAUGAACAACGAAAACCUGGGCCAGGCAGGCAUCAAAAGAAAUAGUCUUGCGCUCAACCAGAAAGUCUGUAAUCAUUUUAAGGGUA [A64C U70C] | 1.18
GUUAACGGUCAUAGGCCAUGGAAACUAGGAGCACCAUUUCGCUGCCAGUGAAGAAAUGAACAUAGAAAAUCUGGGCCAGGCAGGCAUCAAAAGAAAUAGUCUAGCGCUCAACCAGAAAGUCUGUAAUCAUUUUAAGGGUA [A63U U103A] | 0.49
GUUAACGGUCAUAGGCCAUGGAAACUAGGAGCACCAUUUCGCUGCCAGUGAAGAAAUGAACAUAGAAAAUCUGGGCCAGGCAGGCAUCAGAAGAAAUAGUCUUGCGCUCAACCAGAAAGUCUGUAAUCAUUUUAAGGGUA [A63U A90G] | 1.76
GUUAACGGUCAUAGGCCAUGGAAACUAGGAGCACCAUUUCGCUGCCAGUGAAGAAAUGAACAUAGAAAAUCUGGGCCAGGCAGGCAUCAAAGGAAAUAGUCUUGCGCUCAACCAGAAAGUCUGUAAUCAUUUUAAGGGUA [A63U A92G] | 1.88
GUUAACGGUCAUAGGCCAUGGAAACUAGGAGCACCAUUUCGCUGCCAGUGAAGAAAUGAACAUAGAAAAUCUGGGCCAGGCAGGCAUCAAAAGAAAUUGUCUUGCGCUCAACCAGAAAGUCUGUAAUCAUUUUAAGGGUA [A63U A98U] | 1.84
GUUAACGGUCAUAGGCCAUGGAAACUAGGAGCACCAUUUCGCUGCCAGUGAAGAAAUGAACAAGGAGAAUCUGGGCCAGGCAGGCAUCAAAAGAAAUAGUCUUGCGCUCAACCAGAAAGUCUGUAAUCAUUUUAAGGGUA [A64G A67G] | 1.27
GUUAACGGUCAUAGGCCAUGGAAACUAGGAGCACCAUUUCGCUGCCAGUGAAGAAAUGAACAACGAAAAUCUGGGCCAGGCAGGCAUCAAAAGAAGUAGUCUUGCGCUCAACCAGAAAGUCUGUAAUCAUUUUAAGGGUA [A64C A96G] | 1.27
GUUAACGGUCAUAGGCCAUGGAAACUAGGAGCACCAUUUCGCUGCCAGUGAAGAAAUGAACAAGGAAAAUCUGGGCCAGGCAGGCGUCAAAAGAAAUAGUCUUGCGCUCAACCAGAAAGUCUGUAAUCAUUUUAAGGGUA [A64G A86G] | 1.15
GUUAACGGUCAUAGGCCAUGGAAACUAGGAGCACCAUUUCGCUGCCAGUGAAGAAAUGAACAUAGAAAAUCUGGGCCAGGCAGGCAUCAAAAGAAAUAUUCUUGCGCUCAACCAGAAAGUCUGUAAUCAUUUUAAGGGUA [A63U G99U] | 1.03
GUUAACGGUCAUAGGCCAUGGAAACUAGGAGCACCAUUUCGCUGCCAGUGAAGAAAUGAACAUAGAAAAUCUGGGCCAGGCAGGCAUCAAAAGAAUUAGUCUUGCGCUCAACCAGAAAGUCUGUAAUCAUUUUAAGGGUA [A63U A96U] | 2.14
GUUAACGGUCAUAGGCCAUGGAAACUAGGAGCACCAUUUCGCUGCCAGUGAAGAAAUGAACAACGAAAUUCUGGGCCAGGCAGGCAUCAAAAGAAAUAGUCUUGCGCUCAACCAGAAAGUCUGUAAUCAUUUUAAGGGUA [A64C A69U] | 2.61
GUUAACGGUCAUAGGCCAUGGAAACUAGGAGCACCAUUUCGCUGCCAGUGAAGAAAUGAACAGAGAAAAUCUGGGCCAGGCAGGCAUCAAAAGAAAUAGUCUUGCGCUCAACCAGAAAGUCUGUAAUCAUUUCAAGGGUA [A63G U133C] | 1.18

Variant | self-cleavage
GUUAACGGUCAUAGGCCAUGGAAACUAGGAGCACCAUUUCGCUGCCAGUGAAGAAAUGAACAAGGAAAUUCUGGGCCAGGCAGGCAUCAAAAGAAAUAGUCUUGCGCUCAACCAGAAAGUCUGUAAUCAUUUUAAGGGUA [A64G A69U] | 1.58
GUUAACGGUCAUAGGCCAUGGAAACUAGGAGCACCAUUUCGCUGCCAGUGAAGAAAUGAACAAGGAAAGUCUGGGCCAGGCAGGCAUCAAAAGAAAUAGUCUUGCGCUCAACCAGAAAGUCUGUAAUCAUUUUAAGGGUA [A64G A69G] | 1.36
GUUAACGGUCAUAGGCCAUGGAAACUAGGAGCACCAUUUCGCUGCCAGUGAAGAAAUGAACAUAGAAAAUCUGGGCCAGGCAGGCAUCAAAAGAAAUAGUCUUGCGCUCAACCAGAAAGUCUGUAGUCAUUUUAAGGGUA [A63U A126G] | 1.31
GUUAACGGUCAUAGGCCAUGGAAACUAGGAGCACCAUUUCGCUGCCAGUGAAGAAAUGAACAAGGCAAAUCUGGGCCAGGCAGGCAUCAAAAGAAAUAGUCUUGCGCUCAACCAGAAAGUCUGUAAUCAUUUUAAGGGUA [A64G A66C] | 1.17
GUUAACGGUCAUAGGCCAUGGAAACUAGGAGCACCAUUUCGCUGCCAGUGAAGAAAUGAACAAGGAAGAUCUGGGCCAGGCAGGCAUCAAAAGAAAUAGUCUUGCGCUCAACCAGAAAGUCUGUAAUCAUUUUAAGGGUA [A64G A68G] | 1.54
GUUAACGGUCAUAGGCCAUGGAAACUAGGAGCACCAUUUCGCUGCCAGUGAAGAAAUGAACAACGAAGAUCUGGGCCAGGCAGGCAUCAAAAGAAAUAGUCUUGCGCUCAACCAGAAAGUCUGUAAUCAUUUUAAGGGUA [A64C A68G] | 1.44
GUUAACGGUCAUAGGCCAUGGAAACUAGGAGCACCAUUUCGCUGCCAGUGAAGAAAUGAACAACGAAAAUCUGGGCCAGGCAGGCAUCAAAAGAAAUAGUCUUGCGCUCAACCAGAAAGUCUGUAAUCAUCUUAAGGGUA [A64C U131C] | 1.9
GUUAACGGUCAUAGGCCAUGGAAACUAGGAGCACCAUUUCGCUGCCAGUGAAGAAAUGAACAUAGAAGAUCUGGGCCAGGCAGGCAUCAAAAGAAAUAGUCUUGCGCUCAACCAGAAAGUCUGUAAUCAUUUUAAGGGUA [A63U A68G] | 0.87
GUUAACGGUCAUAGGCCAUGGAAACUAGGAGCACCAUUUCGCUGCCAGUGAAGAAAUGAACAUAGAAAAUCUGGGCCAGGCAGGCAUCAAAAGAAACAGUCUUGCGCUCAACCAGAAAGUCUGUAAUCAUUUUAAGGGUA [A63U U97C] | 1.05
GUUAACGGUCAUAGGCCAUGGAAACUAGGAGCACCAUUUCGCUGCCAGUGAAGAAAUGAACAUAGAAAAUCUGGGCCAGGCAGGCAUCAAAAGAAAUAGUCUUGCGCUCAACCAGAAUGUCUGUAAUCAUUUUAAGGGUA [A63U A118U] | 1.02
GUUAACGGUCAUAGGCCAUGGAAACUAGGAGCACCAUUUCGCUGCCAGUGAAGAAAUGAACAACGAAAAUCUGGGCCAGACAGGCAUCAAAAGAAAUAGUCUUGCGCUCAACCAGAAAGUCUGUAAUCAUUUUAAGGGUA [A64C G80A] | 0.2
GUUAACGGUCAUAGGCCAUGGAAACUAGGAGCACCAUUUCGCUGCCAGUGAAGAAAUGAACAUAGAAAAUCUGGGCCAGGCAGGCAUCAAAAGAAAUAGACUUGCGCUCAACCAGAAAGUCUGUAAUCAUUUUAAGGGUA [A63U U100A] | 0.96
GUUAACGGUCAUAGGCCAUGGAAACUAGGAGCACCAUUUCGCUGCCAGUGAAGAAAUGAACAUAGAAAAUCUGGGCCAGGCAGGCAUCAAAAGAAAUAGUCUUGCGCUCAACCAGAAAGUCUGUAAUCAUAUUAAGGGUA [A63U U131A] | 2.65
GUUAACGGUCAUAGGCCAUGGAAACUAGGAGCACCAUUUCGCUGCCAGUGAAGAAAUGAACAUAGAAAAUCUGGGCCAGGCAGGCAUCAAAAGAAAUAGUCUUGCGCUCAACCAGAAAGUCUGUAAUCAUCUUAAGGGUA [A63U U131C] | 1.33
GUUAACGGUCAUAGGCCAUGGAAACUAGGAGCACCAUUUCGCUGCCAGUGAAGAAAUGAACAUAGAAAAUCUGGGCCAGGCAGGCAUCAAUAGAAAUAGUCUUGCGCUCAACCAGAAAGUCUGUAAUCAUUUUAAGGGUA [A63U A91U] | 1.05
GUUAACGGUCAUAGGCCAUGGAAACUAGGAGCACCAUUUCGCUGCCAGUGAAGAAAUGAACAGAGAAAAUCUGGGCCAGGCAGGCAUCAAAAGAAAUAGUCUUGCGCUCAACCAGAAAGUCUGUAACCAUUUUAAGGGUA [A63G U127C] | 0.58
GUUAACGGUCAUAGGCCAUGGAAACUAGGAGCACCAUUUCGCUGCCAGUGAAGAAAUGAACAUAGAAAAUCUGGGCCAGGCAGGCAUCCAAAGAAAUAGUCUUGCGCUCAACCAGAAAGUCUGUAAUCAUUUUAAGGGUA [A63U A89C] | 1.22
GUUAACGGUCAUAGGCCAUGGAAACUAGGAGCACCAUUUCGCUGCCAGUGAAGAAAUGAACAUAGAAAAUCUGGGCCAGGCAGGCAACAAAAGAAAUAGUCUUGCGCUCAACCAGAAAGUCUGUAAUCAUUUUAAGGGUA [A63U U87A] | 1.18
GUUAACGGUCAUAGGCCAUGGAAACUAGGAGCACCAUUUCGCUGCCAGUGAAGAAAUGAACAAGGAAAAUCUGGGCCUGGCAGGCAUCAAAAGAAAUAGUCUUGCGCUCAACCAGAAAGUCUGUAAUCAUUUUAAGGGUA [A64G A78U] | 0.4
GUUAACGGUCAUAGGCCAUGGAAACUAGGAGCACCAUUUCGCUGCCAGUGAAGAAAUGAACAUAGAAAGUCUGGGCCAGGCAGGCAUCAAAAGAAAUAGUCUUGCGCUCAACCAGAAAGUCUGUAAUCAUUUUAAGGGUA [A63U A69G] | 0.49

Source: the RNAGym collection of RNA variant scans (doi:10.7554/elife.90254)
